Laboratory results reported in patent publication US20210388079A1 (published 2021).

Assays:
[1] = target: T1, Serine protease inhibitor Kazal-type 2 (SPINK2); peptide SPINK2-001 peptide on HLA-A*02:01 (human); assay: IFNγ release; T2 cells loaded with 10 µM to 10 pM peptide (FIG. 23); full-length, on cells
T1 peptide: ALSVLRLAL

[2] = target: T1, Serine protease inhibitor Kazal-type 2 …; assay: IFNγ release; T2 cells loaded with 10 µM to 10 pM peptide (FIG. 27); full-length, on cells
[3] = target: T1, Serine protease inhibitor Kazal-type 2 …; assay: IFNγ release; T2 cells loaded with 10 µM to 10 pM peptide (FIG. 28); full-length, on cells
[4] = target: T1, Serine protease inhibitor Kazal-type 2 …; assay: IFNγ release; T2 cells loaded with 10 µM to 10 pM peptide (FIG. 30); full-length, on cells

B1: R40P1C2 (TCR, V domains shown)
Valpha: AQTVTQSQPEMSVQEAETVTLSCTYDTSESDYYLFWYKQPPSRQMILVIRQEAYKQQNATENRFSVNFQKAAKSFSLKISDSQLGDAAMYFCAYLNYQLIWGAGTKLIIKP
Vbeta: EPEVTQTPSHQVTQMGQEVILRCVPISNHLYFYWYRQILGQKVEFLVSFYNNEISEKSEIFDDQFSVERPDGSNFTLKIRSTKLEDSAMYFCASSEMTAVGQYFGPGTRLTVT
- EC50 of peptide [1]: 1.94 nM

B2: R44P3E7 (TCR, V domains shown)
Valpha: GEDVEQSLFLSVREGDSSVINCTYTDSSSTYLYWYKQEPGAGLQLLTYIFSNMDMKQDQRLTVLLNKKDKHLSLRIADTQTGDSAIYFCAEINNNARLMFGDGTQLVVKP
Vbeta: AAGVIQSPRHLIKEKRETATLKCYPIPRHDTVYWYQQGPGQDPQFLISFYEKMQSDKGSIPDRFSAQQFSDYHSELNMSSLELGDSALYFCASSPPDQNTQYFGPGTRLTVL
- EC50 of peptide [2]: 0.86 nM

B3: R49P2B7 (TCR, V domains shown)
Valpha: AQSVTQLGSHVSVSEGALVLLRCNYSSSVPPYLFWYVQYPNQGLQLLLKYTTGATLVKGINGFEAEFKKSETSFHLTKPSAHMSDAAEYFCAVRIFGNEKLTFGTGTRLTIIP
Vbeta: DVKVTQSSRYLVKRTGEKVFLECVQDMDHENMFWYRQDPGLGLRLIYFSYDVKMKEKGDIPEGYSVSREKKERFSLILESASTNQTSMYLCASSLMGELTGELFFGEGSRLTVL
- EC50 of peptide [3]: > 83.2 nM

B4: R59P2A7 (TCR, V domains shown)
Valpha: QKEVEQNSGPLSVPEGAIASLNCTYSDRGSQSFFWYRQYSGKSPELIMSIYSNGDKEDGRFTAQLNKASQYVSLLIRDSQPSDSATYLCAVQPHDMRFGAGTRLTVKP
Vbeta: SQTIHQWPATLVQPVGSPLSLECTVEGTSNPNLYWYRQAAGRGLQLLFYSVGIGQISSEVPQNLSASRPQDRQFILSSKKLLLSDSGFYLCAWSGLVAEQFFGPGTRLTVL
- EC50 of peptide [4]: 0.86 nM
